Numbering of substitutions follows the chain as printed.
Experiments:
Assay in all cases: SPR
mouse GDF-15 = target: T1, mouse GDF-15 (mouse, UniProt Q9Z0J7)
T1 chain: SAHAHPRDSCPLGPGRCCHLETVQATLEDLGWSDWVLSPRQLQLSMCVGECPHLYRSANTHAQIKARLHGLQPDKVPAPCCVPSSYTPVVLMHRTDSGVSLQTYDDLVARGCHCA

cynomolgus GDF-15 = target: T2, cynomolgus GDF-15 (cynomolgus monkey, UniProt G7PWZ3)
T2 chain: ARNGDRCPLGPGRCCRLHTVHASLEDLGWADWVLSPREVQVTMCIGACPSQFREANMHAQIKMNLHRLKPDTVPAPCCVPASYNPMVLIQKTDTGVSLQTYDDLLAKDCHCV

rat GDF-15 = target: T3, rat GDF-15 (rat, UniProt Q9Z0J6)
T3 chain: T1 chain with A4L, Q63L, K75R, R110Q

human GDF-15 = target: T4, human GDF-15 (human, UniProt Q99988)
T4 chain: T2 chain with R6H, H21R, E54A, M63T, N64S, V112I

- Kd (mouse GDF-15): 9.76 nM
- Kd (cynomolgus GDF-15): 0.108 nM
- Kd (rat GDF-15): 0.449 nM
- Kd (human GDF-15): 0.0383 nM
B1: CTL-002 (antibody, V domains shown)
VH: QITLKESGPTLVKPTQTLTLTCTFSGFSLSTSGMGVSWIRQPPGKGLEWLAHIYWDDDKRYNPTLKSRLTITKDPSKNQVVLTMTNMDPVDTATYYCARSSYGAMDYWGQGTLVTVSS
VL: DIVLTQSPSFLSASVGDRVTITCKASQNVGTNVAWFQQKPGKSPKALIYSASYRYSGVPDRFTGSGSGTEFTLTISSLQPEDFAAYFCQQYNNFPYTFGGGTKLEIKR
